Results taken from US20150306234.

Test system: T1, BDD FVIII mutein S2186C
T1 sequence: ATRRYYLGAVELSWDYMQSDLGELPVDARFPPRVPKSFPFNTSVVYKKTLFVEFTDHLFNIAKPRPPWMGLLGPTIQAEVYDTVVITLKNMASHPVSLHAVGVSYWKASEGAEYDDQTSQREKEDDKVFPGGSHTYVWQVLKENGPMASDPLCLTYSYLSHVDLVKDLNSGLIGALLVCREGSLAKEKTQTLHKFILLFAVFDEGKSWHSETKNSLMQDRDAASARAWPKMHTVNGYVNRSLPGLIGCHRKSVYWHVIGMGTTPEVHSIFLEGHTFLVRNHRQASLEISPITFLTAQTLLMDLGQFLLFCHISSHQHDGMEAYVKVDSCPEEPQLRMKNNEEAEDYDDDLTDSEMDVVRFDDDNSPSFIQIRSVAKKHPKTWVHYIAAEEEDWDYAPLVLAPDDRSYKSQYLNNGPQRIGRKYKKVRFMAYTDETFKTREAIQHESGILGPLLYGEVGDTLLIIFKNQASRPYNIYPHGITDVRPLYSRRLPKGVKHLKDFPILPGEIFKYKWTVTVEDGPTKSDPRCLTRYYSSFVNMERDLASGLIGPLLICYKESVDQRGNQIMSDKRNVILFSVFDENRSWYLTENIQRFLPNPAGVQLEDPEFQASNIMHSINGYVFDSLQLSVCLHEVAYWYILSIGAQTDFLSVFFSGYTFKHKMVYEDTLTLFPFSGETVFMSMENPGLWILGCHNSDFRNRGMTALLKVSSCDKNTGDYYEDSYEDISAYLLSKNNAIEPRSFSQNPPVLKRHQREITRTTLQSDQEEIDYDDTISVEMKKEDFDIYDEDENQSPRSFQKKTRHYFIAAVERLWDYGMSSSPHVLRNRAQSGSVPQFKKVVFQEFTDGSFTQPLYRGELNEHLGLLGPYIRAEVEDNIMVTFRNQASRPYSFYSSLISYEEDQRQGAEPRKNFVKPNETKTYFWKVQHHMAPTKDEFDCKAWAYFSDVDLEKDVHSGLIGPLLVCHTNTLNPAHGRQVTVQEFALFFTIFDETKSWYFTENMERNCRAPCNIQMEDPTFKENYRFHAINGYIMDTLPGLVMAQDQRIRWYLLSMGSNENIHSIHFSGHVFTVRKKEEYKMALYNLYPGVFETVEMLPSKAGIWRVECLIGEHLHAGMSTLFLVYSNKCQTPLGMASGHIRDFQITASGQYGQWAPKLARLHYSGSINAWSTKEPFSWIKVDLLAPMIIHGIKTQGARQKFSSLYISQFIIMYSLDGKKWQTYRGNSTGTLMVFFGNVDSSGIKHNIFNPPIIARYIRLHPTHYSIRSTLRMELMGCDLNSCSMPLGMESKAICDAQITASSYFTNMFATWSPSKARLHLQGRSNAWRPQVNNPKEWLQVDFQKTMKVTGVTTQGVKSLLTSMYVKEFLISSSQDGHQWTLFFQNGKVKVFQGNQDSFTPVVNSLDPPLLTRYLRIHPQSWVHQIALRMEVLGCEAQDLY

thrombin (Haematologic Technologies, Essex Junction, Vt.)
thrombin cleavage, SDS-PAGE with silver staining: Thrombin digestion of the muteins and control produced the expected cleavage fragments.
